Test results from article PMC11090907 (2024).
Numbering of substitutions follows the chain as printed. Names and notes keep the numbering of the source.

T1: ALFA tag-human Fc
T1 chain: SRLEEELRRRLTE

T2: ALFA tag-human Fc
T2 chain: SRLEEELRRRLTE

T3: RLuc8-L5-ALFA-tag
T3 chain: SRLEEELRRRLTE

B1: sdAb ALFA WT-TEV-His S57A; E58S; R59G; R65D (protein)
chain: EVQLQESGGGLVQPGGSLRLSCTASGVTISALNAMAMGWYRQAPGERRVMVAAVASGGNAMYDESVQGRFTVTRDFTNKMVSLQMDNLKPEDTAVYYCHVLEDRVDSFHDYWGQGTQVTVSS
B2: sdAb ALFA WT-TEV-His S57A; E58S (protein)
chain: B1 chain with G57R, D63R
B3: sdAb ALFA WT-TEV-His E58S (protein)
chain: B1 chain with A55S, G57R, D63R
B4: sdAb ALFA WT-TEV-His S57A; E58S; R59G (protein)
chain: B1 chain with D63R
B5: sdAb ALFA WT-TEV-His S57A; E58S; R59G; R65D; D112V (protein)
chain: B1 chain with D110V
B6: sdAb ALFA WT-TEV-His (VHH)
VHH: B1 chain with A55S, S56E, G57R, D63R
B7: sdAb ALFA SERR-TEV-His (VHH)
VHH: B1 chain
B8: sdAb ALFA SE-TEV-His (VHH)
VHH: B1 chain with G57R, D63R
B9: sdAb ALFA E-TEV-His (VHH)
VHH: B1 chain with A55S, G57R, D63R
B10: sdAb ALFA SER-TEV-His (VHH)
VHH: B1 chain with D63R
B11: GFP2-L5-sdAbALFA WT S57A; E58S; R59G; R65D; D112V (protein)
chain: B1 chain with D110V
B12: GFP2-L5-sdAbALFA WT S57A; E58S; R59G; R65D (protein)
chain: B1 chain
B13: GFP2-L5-sdAbALFA WT S57A; E58S (protein)
chain: B1 chain with G57R, D63R
B14: GFP2-L5-sdAbALFA WT E58S (protein)
chain: B1 chain with A55S, G57R, D63R
B15: GFP2-L5-sdAbALFA WT S57A; E58S; R59G (protein)
chain: B1 chain with D63R

Molecular target: T1, ALFA tag-human Fc
Assay: SPR
Conditions: chain shown with the change; room temperature; parent: 5.0 ± 0.07 pM

Binder	Kd
B1	1130 nM
B2	1.7 nM
B3	0.8 nM
B4	2.4 nM

Same assay, conditions: chain shown with the change; sdAb at 50 nM; parent: est. 61; read off a plot

Binder	response (Response Unit)
B5	0
B1	3.8
B4	57

Molecular target: T2, ALFA tag-human Fc
Assay: SPR
Conditions: not given

Binder	Kd
B6	0.005 nM

Molecular target: T2, ALFA tag-human Fc
Assay: SPR
Conditions: not given
Remark: another data set of the same source

Binder	koff
B7	0.026 s⁻¹
B8	0.0073 s⁻¹
B9	0.0039 s⁻¹
B10	0.011 s⁻¹
B6	2.7e-05 s⁻¹

Molecular target: T3, RLuc8-L5-ALFA-tag
Assay: BRET donor saturation assay
Conditions: chain shown with the change; HEK293T cells; 37°C; Acceptor/Donor ratio 20; parent: est. 26; read off a plot

Binder	response
B11	2 BRET ratio
B12	9.5 BRET ratio

Same assay, conditions: chain shown with the change; HEK293T cells; 37°C; parent: 1.4 ± 0.09

Binder	other: BRET50
B11	12.4
B13	6.2
B12	9.3
B14	2.2
B15	5.2

Same assay, conditions: chain shown with the change; HEK293T cells; 37°C; parent: 28.4 ± 0.37

Binder	other: BRETmax
B11	3.3
B13	26.7
B12	14
B14	28.1
B15	26.4
